From US10047131B2, “Peptides and combination of peptides for use in immunotherapy against ovarian cancer and other cancers” (immatics biotechnologies GmbH, priority 2015, dated 2018)

Target: HLA-A*02:01 (Homo sapiens, UniProt P04439, D140Y/D185E/D98H/E176V/E277Q/G131W/G231S/I119V/I121R/I166T/I218V/L300P/L318F/N151K/N90K/P208A/P217A/Q86G/Q94H/R138H/R169H/T345S)
Test: MHC binding assay (UV-ligand exchange, ELISA of exchange yield)
Settings: binding to HLA-A*02:01, UV-ligand exchange
Source text: Candidate peptides for T cell based therapies according to the present invention were further tested for their MHC binding capacity (affinity). The individual peptide-MHC complexes were produced by UV-ligand exchange, where a UV-sensitive peptide is cleaved upon UV-irradiation, and exchanged with the peptide of interest as analyzed. Only peptide candidates that can effectively bind and stabilize the peptide-receptive MHC molecules prevent dissociation of the MHC complexes. To determine the yield of the exchange reaction, an ELISA was performed based on the detection of the light chain (p2m) of stabilized MHC complexes. The assay was performed as generally described in Rodenko et al. (Rodenko et al., 2006).
96 well MAXISorp plates (NUNC) were coated over night with 2 μg/ml streptavidin in PBS at room temperature, washed 4× and blocked for 1 h at 37° C. in 2% BSA containing blocking buffer. […] Peptide-MHC monomers of the UV-exchange reaction were diluted 100 fold in blocking buffer. Samples were incubated for 1h at 37° C., washed four times, incubated with 2 μg/ml HRP conjugated anti-β2m for 1h at 37° C., washed again and detected with TMB solution that is stopped with […]. Absorption was measured at 450 nm. Candidate peptides that show a high exchange yield (preferably higher than 50%, most preferred higher than 75%) are generally preferred for a generation and production of antibodies or fragments thereof, and/or T cell receptors or fragments thereof, as they show sufficient avidity to the MHC molecules and prevent dissociation of the MHC complexes.

Substance	Peptide exchange (MHC class I binding score, peptide exchange yield)
362 (TLYGLSVLL; listed as Homo sapiens) [compound 362]	“+++” (≥50 = +++)
580 (LLMENAERV; listed as Homo sapiens) [compound 580]	“++” (≥20% = ++)
131 (FVPPVTVFPSL; listed as Homo sapiens) [compound 131]	“++” (≥20% = ++)
509 (FLFDTKPLIV; listed as Homo sapiens) [compound 509]	“+++” (≥50 = +++)
314 (ALIAEGIALV; listed as Homo sapiens) [compound 314]	“+++” (≥50 = +++)
175 (YLFENISQL; listed as Homo sapiens) [compound 175]	“+++” (≥50 = +++)
146 (SLATAGDGLIEL; listed as Homo sapiens) [compound 146]	“++” (≥20% = ++)
616 (VLIDEVESL; listed as Homo sapiens) [compound 616]	“+++” (≥50 = +++)
194 (ALPLFVITV; listed as Homo sapiens) [compound 194]	“+++” (≥50 = +++)
231 (FLSPQQPPLLL; listed as Homo sapiens) [compound 231]	“++” (≥20% = ++)
340 (ALLSMTFPL; listed as Homo sapiens) [compound 340]	“++++” (≥75% = ++++)
529 (LLADELITV; listed as Homo sapiens) [compound 529]	“+++” (≥50 = +++)
141 (YLDFSNNRL; listed as Homo sapiens) [compound 141]	“++” (≥20% = ++)
122 (FLLAEDDIYL; listed as Homo sapiens) [compound 122]	“+++” (≥50 = +++)
134 (YLQELIFSV; listed as Homo sapiens) [compound 134]	“+++” (≥50 = +++)
230 (ILVDWLVEV; listed as Homo sapiens) [compound 230]	“+” (≥10% = +)
76 (ILIDSIYKV; listed as Homo sapiens) [compound 76]	“+++” (≥50 = +++)
316 (ILLERLWYV; listed as Homo sapiens) [compound 316]	“+++” (≥50 = +++)
258 (ELAERVPAI; listed as Homo sapiens) [compound 258]	“++” (≥20% = ++)
586 (KLKPGDLVGV; listed as Homo sapiens) [compound 586]	“+++” (≥50 = +++)
567 (SLLPLDDIVRV; listed as Homo sapiens) [compound 567]	“+++” (≥50 = +++)

Substance	Peptide exchange (MHC class I binding score, peptide exchange yield)
319 (SLEPQIQPV; listed as Homo sapiens) [compound 319]	“++” (≥20% = ++)
381 (FIDEAYVEV; listed as Homo sapiens) [compound 381]	“++” (≥20% = ++)
249 (LLDGFLVNV; listed as Homo sapiens) [compound 249]	“+++” (≥50 = +++)
200 (LLFGSVQEV; listed as Homo sapiens) [compound 200]	“+++” (≥50 = +++)
519 (GLLHLTLLL; listed as Homo sapiens) [compound 519]	“+++” (≥50 = +++)
589 (KLYPQLPAEI; listed as Homo sapiens) [compound 589]	“+++” (≥50 = +++)
574 (YLLQEPPRTV; listed as Homo sapiens) [compound 574]	“++” (≥20% = ++)
515 (LLQELVLFL; listed as Homo sapiens) [compound 515]	“+++” (≥50 = +++)
59 (IMEDIILTL; listed as Homo sapiens) [compound 59]	“+++” (≥50 = +++)
495 (FIFSEKPVFV; listed as Homo sapiens) [compound 495]	“+++” (≥50 = +++)
288 (NLINEINGV; listed as Homo sapiens) [compound 288]	“+++” (≥50 = +++)
167 (KVLEVTEEFGV; listed as Homo sapiens) [compound 167]	“+++” (≥50 = +++)
209 (KLIESKHEV; listed as Homo sapiens) [compound 209]	“++” (≥20% = ++)
177 (YLLPEEYTSTL; listed as Homo sapiens) [compound 177]	“++++” (≥75% = ++++)
389 (LLADVTHLL; listed as Homo sapiens) [compound 389]	“++” (≥20% = ++)
300 (ALLGQTFSL; listed as Homo sapiens) [compound 300]	“+++” (≥50 = +++)
257 (SIFSAFLSV; listed as Homo sapiens) [compound 257]	“+++” (≥50 = +++)
467 (FLAKDFNFL; listed as Homo sapiens) [compound 467]	“+++” (≥50 = +++)
20 (RMIEYFIDV; listed as Homo sapiens) [compound 20]	“+++” (≥50 = +++)
607 (RLYSGISGLEL; listed as Homo sapiens) [compound 607]	“+++” (≥50 = +++)
248 (FLFPNQYVDV; listed as Homo sapiens) [compound 248]	“+++” (≥50 = +++)

Substance	Peptide exchange (MHC class I binding score, peptide exchange yield)
475 (LLLNEEALAQI; listed as Homo sapiens) [compound 475]	“+++” (≥50 = +++)
307 (ALPVSLPQI; listed as Homo sapiens) [compound 307]	“+++” (≥50 = +++)
397 (YLFGERLLEC; listed as Homo sapiens) [compound 397]	“+++” (≥50 = +++)
215 (QLINHLHAV; listed as Homo sapiens) [compound 215]	“+++” (≥50 = +++)
90 (TLLQIIETV; listed as Homo sapiens) [compound 90]	“+++” (≥50 = +++)
310 (FLVDTPLARA; listed as Homo sapiens) [compound 310]	“++++” (≥75% = ++++)
378 (ALGYFVPYV; listed as Homo sapiens) [compound 378]	“+++” (≥50 = +++)
502 (RLLAQVPGL; listed as Homo sapiens) [compound 502]	“+++” (≥50 = +++)
446 (QLIPALAKV; listed as Homo sapiens) [compound 446]	“+++” (≥50 = +++)
165 (SLLDEIRAV; listed as Homo sapiens) [compound 165]	“+++” (≥50 = +++)
234 (ALMEDTGRQML; listed as Homo sapiens) [compound 234]	“++” (≥20% = ++)
456 (LLIGHLERV; listed as Homo sapiens) [compound 456]	“+++” (≥50 = +++)
365 (YVIDQGETDVYV; listed as Homo sapiens) [compound 365]	“+++” (≥50 = +++)
578 (FLDPGGPMMKL; listed as Homo sapiens) [compound 578]	“+++” (≥50 = +++)
383 (ALLELENSVTL; listed as Homo sapiens) [compound 383]	“+++” (≥50 = +++)
220 (LLQKFVPEI; listed as Homo sapiens) [compound 220]	“++” (≥20% = ++)
276 (ALFTFSPLTV; listed as Homo sapiens) [compound 276]	“+++” (≥50 = +++)
301 (FLVEDLVDSL; listed as Homo sapiens) [compound 301]	“+++” (≥50 = +++)
462 (KLAKQPETV; listed as Homo sapiens) [compound 462]	“+++” (≥50 = +++)
